The values that follow come from patent publication US12617818 (UNIVERSITY OF NORTH TEXAS, dated 2026).

For experiment [1], the target named is T1, Human β-cardiac myosin S2 peptide, wild-type (MYH7, 19 residues) (human, also: in FRET: FITC on N-terminus of one monomer, terbium-DTPA-cytosine chelate on C-terminal Lys of the other).
T1 construct: Chemically synthesized; forms a coiled-coil dimer; also called human cardiac myosin S2 peptide; cardiac muscle myosin S2^pep
T1 peptide: EMNERLEDEEEMNAELTAK
The experiment in a line: competitive ELISA, printed as 'binding constant'; differs from 1.37 nM at paragraph 347. The method, then: (§1) Unbound protein complexes are washed off by PBS and blocking buffer. Enzyme conjugated secondary antibody is added to the wells and allowed to conjugate for an hour. After washing with detergent buffer, color developing substrate BCIP is added and development of color in the wells is recorded. The video is analyzed by Image J to get the OD in the wells.

In experiment [2] the target is T1, Human β-cardiac myosin S2 peptide, …. The experiment is described as follows: competitive ELISA (curve fit of OD), printed as 'binding efficiency'; antibody 1:64, 62.5 nM S2 peptide, stabilizer 0 to 250 nM, rabbit skeletal myosin coated. The method, then: as §1
Experiment [3] addresses T2, Human smooth myosin S2 peptide (MYH11), 21 residues (human, in FRET: FITC on the N-terminus of one monomer, terbium-DTPA-cytosine chelate on the C-terminal lysine of the other).
T2 construct: also called smooth muscle myosin S2^pep
T2 peptide: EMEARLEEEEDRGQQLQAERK
The experiment in a line: FRET donor lifetime of the labelled smooth muscle S2 peptide dimer titrated with the peptide. From the text:
(§2) Donor probe was conjugated to C-terminus of a myosin S2 peptide monomer and acceptor probe was conjugated to N-terminus of another myosin S2 peptide. In FRET as lanthanide of the donor probe decays, energy goes to fluorescein and it emits out energy in form of light. In addition, as the monomers come closer to each other, lifetime of donor decreases indicating a decrease in distance between donor and acceptor probe; an opposite effect is observed, with an increase in distance between the probes, […]. Lifetime of donor probe was measured in milliseconds.
The specificity of peptides were later tested on the myosin S2 of the smooth muscle (MYH11). […] Smooth muscle myosin S2^pep was treated with different concentrations of anti-S2 peptides.

The target of experiment [4] is T1, Human β-cardiac myosin S2 peptide, …. The experiment in a line: FRET donor lifetime of labelled S2 peptide dimer titrated with stabilizer.
From the text: as §2
During FRET assay, cardiac muscle myosin S2^pep was treated with increasing concentrations of anti-S2 peptides. […] Dilution to decrease the concentration of dimer cardiac muscle myosin S2^pep was performed to measure binding affinity of coiled-coil peptide and in turn to measure minimal concentration for stable dimer formation (FIG. 25A). […] (FIG. 25B)

Experiment [5] deals with T3, Human β-cardiac mutant myosin S2 peptide (E924K), 19 residues (human, also: in FRET: FITC on N-terminus of one monomer, terbium-DTPA-cytosine chelate on C-terminal Lys of the other).
T3 construct: E924K already in the entry; also called Cardiac Myosin S2 Mutant, E924K
T3 peptide: EMNKRLEDEEEMNAELTAK
The experiment in a line: FRET donor lifetime of 0.1 µM labelled dimer titrated with stabilizer; text value and unit differ from Table 3.
From the text: as §2

Experiment [6] has as its target T1, Human β-cardiac myosin S2 peptide, …. The experiment in a line: competitive ELISA, printed as 'binding efficiency'. As for the experimental part: as §1
The target of experiment [7] is T4, Human β-cardiac mutant myosin S2 peptide (E930del), 18 residues (human, also: in FRET: FITC on N-terminus of one monomer, terbium-DTPA-cytosine chelate on C-terminal Lys of the other).
T4 construct: Deletion of glutamate 930 already in the entry; also called Edel930; ΔE930
T4 peptide: EMNERLEDEEMNAELTAK
The experiment is described as follows: FRET donor lifetime of 0.1 µM labelled S2 peptide dimer titrated with stabilizer.

For experiment [8], the target named is T3, Human β-cardiac mutant myosin S2 …. The description is as above.
For experiment [9], the target named is T5, Human skeletal myosin S2 peptide (MYH2), 19 residues (human, also: in FRET: FITC on N-terminus of one monomer, terbium-DTPA-cytosine chelate on C-terminal Lys of the other).
T5 construct: also called skeletal muscle myosin S2^pep
T5 peptide: EVTERAEDEEEINAELTAK
The description is as above.

The target of experiment [10] is T6, Skeletal muscle myosin S2 synthetic peptide for GFS (MYH2), 36 residues (human).
T6 peptide: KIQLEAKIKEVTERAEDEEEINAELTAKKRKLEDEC
The experiment in a line: cell-based or functional assay.

For experiment [11], the target named is T7, Cardiac muscle myosin S2 synthetic peptide for GFS, E930del mutant (MYH7 E930del), 35 residues (human, not fully specified).
T7 peptide: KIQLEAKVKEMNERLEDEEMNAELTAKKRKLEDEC
The experiment in a line: cell-based or functional assay.

The target of experiment [12] is T8, Smooth muscle myosin S2 synthetic peptide for GFS (MYH11), 36 residues (human).
T8 peptide: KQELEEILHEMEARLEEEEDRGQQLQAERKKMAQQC
The experiment is described as follows: cell-based or functional assay.

Experiment [13] has as its target T9, Cardiac muscle myosin S2 synthetic peptide for GFS (MYH7), 36 residues (human).
T9 peptide: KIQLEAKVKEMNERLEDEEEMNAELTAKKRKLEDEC
The experiment is described as follows: cell-based or functional assay.

The target of experiment [14] is T6, Skeletal muscle myosin S2 synthetic …. The experiment in a line: cell-based or functional assay.
The target of experiment [15] is T7, Cardiac muscle myosin S2 synthetic …. The experiment in a line: cell-based or functional assay.
Experiment [16] has as its target Rabbit skeletal myosin (rabbit). The experiment is described as follows: cell-based or functional assay.
For experiment [17], the target named is T9, Cardiac muscle myosin S2 synthetic …. The experiment is described as follows: cell-based or functional assay.
Experiment [18] has as its target T10, Rabbit skeletal myosin (rabbit).
T10 construct: mature; also called rabbit whole skeletal myosin; rabbit skeletal myosin S2
The experiment is described as follows: 'previously calculated Kd values'; row stands under the IC-50 head for stabilizers, read as unlabeled stabilizer; method and source of the myosin not stated.

Where no end group is shown, it is not given here.

T10 sequence (Q28641 whole entry, chain 1 of 3): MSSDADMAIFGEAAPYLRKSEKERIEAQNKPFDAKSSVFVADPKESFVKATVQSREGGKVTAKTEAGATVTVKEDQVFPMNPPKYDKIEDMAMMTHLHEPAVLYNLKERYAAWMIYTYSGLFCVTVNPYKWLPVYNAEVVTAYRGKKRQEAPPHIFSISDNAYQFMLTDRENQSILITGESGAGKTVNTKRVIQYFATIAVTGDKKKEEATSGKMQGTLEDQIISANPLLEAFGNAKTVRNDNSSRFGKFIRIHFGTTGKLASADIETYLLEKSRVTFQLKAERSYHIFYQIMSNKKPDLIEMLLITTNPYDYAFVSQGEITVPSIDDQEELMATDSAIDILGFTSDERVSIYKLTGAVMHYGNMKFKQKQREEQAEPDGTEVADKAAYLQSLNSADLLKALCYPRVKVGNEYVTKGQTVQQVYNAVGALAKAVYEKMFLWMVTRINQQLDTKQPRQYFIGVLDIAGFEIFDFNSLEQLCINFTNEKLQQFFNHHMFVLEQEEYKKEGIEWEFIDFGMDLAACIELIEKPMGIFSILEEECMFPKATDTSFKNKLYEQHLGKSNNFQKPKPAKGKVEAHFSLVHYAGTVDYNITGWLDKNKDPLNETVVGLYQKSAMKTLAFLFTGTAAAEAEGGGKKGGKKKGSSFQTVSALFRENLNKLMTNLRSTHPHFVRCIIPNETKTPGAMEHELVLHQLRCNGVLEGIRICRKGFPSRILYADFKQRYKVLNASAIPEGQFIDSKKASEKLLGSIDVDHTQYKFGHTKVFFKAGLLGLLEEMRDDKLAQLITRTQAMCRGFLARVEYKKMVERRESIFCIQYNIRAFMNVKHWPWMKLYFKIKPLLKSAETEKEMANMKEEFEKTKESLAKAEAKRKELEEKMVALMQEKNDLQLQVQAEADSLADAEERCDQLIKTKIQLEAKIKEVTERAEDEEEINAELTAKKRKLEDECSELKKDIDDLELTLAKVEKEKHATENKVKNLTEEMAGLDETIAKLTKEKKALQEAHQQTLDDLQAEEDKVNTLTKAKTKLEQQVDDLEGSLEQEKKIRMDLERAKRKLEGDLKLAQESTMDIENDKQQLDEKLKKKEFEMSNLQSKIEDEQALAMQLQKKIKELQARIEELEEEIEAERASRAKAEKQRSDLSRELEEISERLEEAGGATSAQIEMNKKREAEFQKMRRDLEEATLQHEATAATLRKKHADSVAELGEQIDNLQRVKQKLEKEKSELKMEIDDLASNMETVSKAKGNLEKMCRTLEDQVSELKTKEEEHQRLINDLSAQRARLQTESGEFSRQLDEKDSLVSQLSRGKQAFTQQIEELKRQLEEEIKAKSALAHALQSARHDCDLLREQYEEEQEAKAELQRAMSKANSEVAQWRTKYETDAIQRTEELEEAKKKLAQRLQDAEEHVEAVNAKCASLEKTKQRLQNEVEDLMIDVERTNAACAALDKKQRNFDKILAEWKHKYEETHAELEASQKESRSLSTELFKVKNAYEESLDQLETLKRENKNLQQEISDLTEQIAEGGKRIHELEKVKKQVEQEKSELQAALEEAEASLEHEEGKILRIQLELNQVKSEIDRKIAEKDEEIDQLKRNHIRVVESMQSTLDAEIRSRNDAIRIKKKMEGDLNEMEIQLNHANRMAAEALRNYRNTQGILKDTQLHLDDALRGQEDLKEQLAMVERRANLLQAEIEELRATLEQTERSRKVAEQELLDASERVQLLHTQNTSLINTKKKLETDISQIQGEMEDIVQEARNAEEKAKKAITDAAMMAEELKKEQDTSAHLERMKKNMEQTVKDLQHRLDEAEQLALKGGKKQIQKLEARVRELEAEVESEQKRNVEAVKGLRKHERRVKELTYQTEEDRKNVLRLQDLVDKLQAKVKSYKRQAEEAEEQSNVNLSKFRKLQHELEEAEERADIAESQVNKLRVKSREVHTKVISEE
T10 sequence (P02602 2-192, chain 2 of 3, further chain): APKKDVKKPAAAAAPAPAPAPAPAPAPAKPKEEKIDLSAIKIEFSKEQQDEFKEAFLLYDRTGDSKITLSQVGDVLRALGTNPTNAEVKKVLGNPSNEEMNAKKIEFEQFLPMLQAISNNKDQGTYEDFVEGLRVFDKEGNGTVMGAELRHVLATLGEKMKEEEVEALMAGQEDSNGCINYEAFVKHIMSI
T10 sequence (P02608 2-170, chain 3 of 3, further chain): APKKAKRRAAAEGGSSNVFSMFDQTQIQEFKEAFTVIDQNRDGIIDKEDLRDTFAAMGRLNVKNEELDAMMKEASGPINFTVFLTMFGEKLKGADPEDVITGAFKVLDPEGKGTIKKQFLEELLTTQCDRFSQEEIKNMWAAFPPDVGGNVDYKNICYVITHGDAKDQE

B1: Stabilizer peptide (peptide)
peptide: KKKKKKKKFKAKKKKKK
notes: also called stabilizing peptide; unlabeled stabilizer
In the case of B1, the dissociation constant (Kd) was determined as 0.00138 µM in experiment [1]; 0.00137 µM in [2]; 0.0212 µM in experiment [4]; 36200 µM in experiment [5]; 0.001 µM in [6]; 0.238 µM in experiment [7]. Also, the dissociation constant (Kd) in experiment [8] was 0.034 µM; in [9], 0.0197 µM; in the experiment with Rabbit skeletal myosin [18], 0.006 µM. Further, the binding result in experiment [3] is on record as “no binding”. Besides, the “GFS: force to uncoil the S2 peptide dimer to a length of 10 nm, with stabilizer” value was 0.628 pN in experiment [10], 1.07 pN in experiment [11], 0.496 pN in experiment [12] and 1.55 pN in experiment [13]. Besides, the “GFS: fold increase of the force required to uncoil the coiled coil against control” value in [14] is 1.4 times; in experiment [15], 2.6 times; in experiment [17] it was 1.8 times. For the same molecule, the “GFS: fold of force required to uncoil myosin in presence of stabilizer against control” value with Rabbit skeletal myosin [16] turned out to be 1.5 times.
